# Data: US20070059799A1
# No end group written: not given here.
# Target: HLA-A*0201 (human)
# Test: not given
# Conditions: not given
row,Binder,binding affinity ratio (IC50 of standard peptide / IC50 of test peptide)
1,LLDYQGML (modifications not checked) [HBV ENV 260 LLDYQGML],0.0004
2,NLGNLNVSI (modifications not checked) [HBV POL 42 peptide …],0.0047
3,NLLSSNLSWL (modifications not checked) [HBV POL 406 peptide …],0.0016
4,FLFILLLCL (modifications not checked) [HBV ENV 246 9-mer …],0.0002
5,LIFLLVLL (modifications not checked) [HBV ENV 254 LIFLLVLL],0.0025
6,FIIFLFIL (modifications not checked) [HBV ENV 243 8-mer FIIFLFIL],0.0006
7,LLGCAANWI (modifications not checked) [HBV POL 752 …],0.0011
8,LLTRILTI (modifications not checked) [HBV ENV 184 LLTRILTI],0.0026
9,DLNLGNLNV (modifications not checked) [HBV POL 40 9-mer …],0.0004
10,LVSFGVWI (modifications not checked) [HBV NUC 119 peptide LVSFGVWI],0.0004

# Target: HLA-A*0301 (human)
# Test: not given
# Conditions: not given
row,Binder,binding affinity ratio (IC50 of standard peptide / IC50 of test peptide)
1,CLIFLLVLLDY (modifications not checked) [HBV ENV 253 …],0.0083
2,LSTLPETTVVR (modifications not checked) [HBV NUC 169 …],-0.0009
3,TSAICSVVRR (modifications not checked) [HBV POL 519 …],0.0018
4,GLLGFAAPF (modifications not checked) [HBV POL 627 peptide …],0.0006
5,VVRRRGRSPR (modifications not checked) [HBV NUC 177 peptide […] (as printed)],0.0027
6,RAFPHCLAF (modifications not checked) [HBV POL 528 peptide …],0.0015
7,WLSLDVSAAFY (not fully specified) [[…] (HBV POL 414)],0.0034
8,RSPRRRTPSPR (modifications not checked) [HBV NUC 163 peptide …],-0.0007
9,LSWLSLDVSA (modifications not checked) [HBV POL 412 …],0.0048
10,YLPLDKGIKPY (modifications not checked) [… (HBV POL 122)],-0.0004
11,SVVLSRKY (modifications not checked) [HBV POL 739 SVVLSRKY],-0.0002

# Target: HLA-A*03 (human)
# Test: competition with 125I-labelled probe peptide for purified HLA, gel filtration
# Conditions: not given
row,Binder,IC50 [nM]
1,"GVWIRTPPAYR (modifications not checked) [peptide 26.0535 (HBV X NUC FUS 299, …)]",58
2,"RLVVDFSQFSR (modifications not checked) [peptide 26.0539 (HBV POL 376, …)]",39
3,"HTLWKAGILYK (modifications not checked) [peptide 1147.16 (HBV pol 149, …)]",20

# Same assay, conditions: remark: other sources report otherwise
row,Binder,IC50 [nM]
1,"SVVRRAFPH (modifications not checked) [peptide 20.0131 (HBV pol 524, …)]",100
2,"VSFGVWIR (modifications not checked) [peptide 26.0023 (HBV X NUC FUS 296, VSFGVWIR)]",2750
3,"AFTFSPTYK (modifications not checked) [peptide 20.0130 (HBV pol 655, …)]",42

# Target: HLA-A*0301 (human)
# Test: as above
# Conditions: not given
row,Binder,binding affinity ratio (IC50 of standard peptide / IC50 of test peptide)
1,LLDTASALYR (modifications not checked) [HBV NUC 30 peptide …],0.005
2,HLNPNKTKR (modifications not checked) [HBV POL 569 peptide …],0.0025

# Target: HLA-A*3101 (human)
# Test: as above
# Conditions: not given
Binder,binding affinity ratio (IC50 of standard peptide / IC50 of test peptide),IC50 [nM]
GIHLNPNKTK (modifications not checked) [HBV POL 567 peptide …],0.0009,–
"GVWIRTPPAYR (modifications not checked) [peptide 26.0535 (HBV X NUC FUS 299, …)]",–,3
"RLVVDFSQFSR (modifications not checked) [peptide 26.0539 (HBV POL 376, …)]",–,7

# Same assay, conditions: remark: other sources report otherwise
row,Binder,IC50 [nM]
1,"KVFVLGGCR (modifications not checked) [peptide 1.0993 (HBV X 130, …)]",30
2,"AFTFSPTYK (modifications not checked) [peptide 20.0130 (HBV pol 655, …)]",3100
3,"SSAGPCALR (modifications not checked) [peptide 26.0153 (HBV X 64, …)]",55
4,"FVLGGCRHK (modifications not checked) [peptide 1.0219 (HBV X 1550, …)]",1500

# Target: HLA-A*3301 (human)
# Test: as above
# Conditions: not given
row,Binder,binding affinity ratio (IC50 of standard peptide / IC50 of test peptide)
1,GIHLNPNKTK (modifications not checked) [HBV POL 567 peptide …],0.0009

# Target: HLA-A*0301 (human)
# Test: competition with 125I-labelled standard peptide on purified HLA, gel filtration
# Conditions: not given
row,Binder,binding affinity ratio (IC50 of standard peptide / IC50 of test peptide)
1,TSAICSVVRR (modifications not checked) [HBV POL 519 10-mer peptide … (SEQ ID NO: 668)],0.0018

# Target: HLA-A*0201 (human)
# Test: competition with 125I-labelled standard peptide for purified HLA, gel filtration
# Conditions: not given
row,Binder,binding affinity ratio (IC50 of standard peptide / IC50 of test peptide)
1,"ILLLCLIFL (modifications not checked) [HBV ENV 249 peptide … (9-mer, as printed)]",0.0015
2,CIPIPSSWA (modifications not checked) [HBV ENV 312 peptide …],0.001
3,AICSVVRRA (modifications not checked) [HBV POL 521 peptide …],0.0001
4,CLGWLWGMDI (modifications not checked) [HBV NUC 23 peptide …],0.0093
5,ILLLCLIFLLV (modifications not checked) [HBV ENV 249 peptide …],0.0056
6,CLAFSYMDDV (modifications not checked) [HBV POL 533 peptide …],0.0008
7,CLIFLLVL (modifications not checked) [HBV ENV 253 peptide CLIFLLVL],0.0002
8,IVGLLGFAA (modifications not checked) [HBV POL 625 peptide …],0.0009

# Same assay, conditions: remark: other sources report otherwise
row,Binder,binding affinity ratio (IC50 of standard peptide / IC50 of test peptide)
1,AMSTTDLEA (modifications not checked) [HBV X 102 peptide …],0.0013

# Target: HLA-A*0301 (human)
# Test: not given
# Conditions: not given
# Remark: another data set of the same source
row,Binder,binding affinity ratio (IC50 of standard peptide / IC50 of test peptide)
1,NLNVSIPWTHK (modifications not checked) [HBV POL 45 …],-0.0009
2,SAGPCALRF (modifications not checked) [HBV X 65 …],-0.0003
3,LVPFVQWF (modifications not checked) [HBV ENV 339 LVPFVQWF],0.0028
4,LVVDFSQF (modifications not checked) [HBV POL 377 LWDFSQF],0.0016
5,SSAGPCALRF (modifications not checked) [HBV X 64 …],-0.0003
6,LTVNEKRR (modifications not checked) [HBV POL 99 LTVNEKRR],-0.0002
7,RTPSPRRR (modifications not checked) [HBV NUC 188 RTPSPRRR],-0.0002
8,NSVVLSRK (modifications not checked) [HBV POL 738 NSVVLSRK],0.0006
9,SALNPADDPSR (modifications not checked) [HBV POL 771 …],-0.0004
10,NLEDPASR (modifications not checked) [HBV NUC 75 NLEDPASR],-0.0002

# Same assay, conditions: remark: other sources report otherwise
row,Binder,binding affinity ratio (IC50 of standard peptide / IC50 of test peptide)
1,SAICSVVR (modifications not checked) [HBV POL 520 SAICSVVR],-0.0002
2,SAGPCALR (modifications not checked) [HBV X 65 SAGPCALR],-0.0002

# Target: HLA-A*1101 (human)
# Test: inhibition of 125I-labelled standard peptide binding to purified HLA
# Conditions: not given
row,Binder,binding affinity ratio (IC50 of standard peptide / IC50 of test peptide)
1,PLTVNEKRR (modifications not checked) [HBV POL 98 peptide …],0.0005

# Target: HLA-A*3101 (human)
# Test: as above
# Conditions: not given
row,Binder,binding affinity ratio (IC50 of standard peptide / IC50 of test peptide)
1,PARDVLCLR (modifications not checked) [HBV X 11 peptide …],0.01
2,PLSYQHFR (modifications not checked) [HBV POL 2 peptide PLSYQHFR],-0.0009

# Target: HLA-A*3301 (human)
# Test: as above
# Conditions: not given
row,Binder,binding affinity ratio (IC50 of standard peptide / IC50 of test peptide)
1,PARDVLCLR (modifications not checked) [HBV X 11 peptide …],0.018
2,PLSYQHFR (modifications not checked) [HBV POL 2 peptide PLSYQHFR],-0.0009
3,PLTVNEKRR (modifications not checked) [HBV POL 98 peptide …],0.0027
